T1: Mouse HARS (mouse, UniProt Q61035 1-509, limits assumed)
T1 construct: also called mouse HRS
T1 sequence: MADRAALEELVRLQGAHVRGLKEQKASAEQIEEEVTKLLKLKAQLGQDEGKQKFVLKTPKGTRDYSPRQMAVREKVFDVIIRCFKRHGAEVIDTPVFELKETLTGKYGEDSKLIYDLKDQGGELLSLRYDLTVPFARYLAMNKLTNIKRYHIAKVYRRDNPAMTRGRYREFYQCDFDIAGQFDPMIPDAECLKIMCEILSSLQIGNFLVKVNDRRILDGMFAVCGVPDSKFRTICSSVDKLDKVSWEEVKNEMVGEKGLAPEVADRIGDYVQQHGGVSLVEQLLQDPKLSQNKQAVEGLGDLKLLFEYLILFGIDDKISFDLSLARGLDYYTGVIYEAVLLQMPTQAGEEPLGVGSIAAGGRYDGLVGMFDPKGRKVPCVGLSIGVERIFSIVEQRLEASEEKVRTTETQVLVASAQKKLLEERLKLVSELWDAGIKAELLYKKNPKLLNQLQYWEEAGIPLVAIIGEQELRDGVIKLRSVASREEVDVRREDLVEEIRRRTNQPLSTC

T2: Human HARS (human, UniProt P12081 1-509, limits assumed)
T2 construct: also called human HRS; human histidyl-tRNA synthetase
T2 sequence: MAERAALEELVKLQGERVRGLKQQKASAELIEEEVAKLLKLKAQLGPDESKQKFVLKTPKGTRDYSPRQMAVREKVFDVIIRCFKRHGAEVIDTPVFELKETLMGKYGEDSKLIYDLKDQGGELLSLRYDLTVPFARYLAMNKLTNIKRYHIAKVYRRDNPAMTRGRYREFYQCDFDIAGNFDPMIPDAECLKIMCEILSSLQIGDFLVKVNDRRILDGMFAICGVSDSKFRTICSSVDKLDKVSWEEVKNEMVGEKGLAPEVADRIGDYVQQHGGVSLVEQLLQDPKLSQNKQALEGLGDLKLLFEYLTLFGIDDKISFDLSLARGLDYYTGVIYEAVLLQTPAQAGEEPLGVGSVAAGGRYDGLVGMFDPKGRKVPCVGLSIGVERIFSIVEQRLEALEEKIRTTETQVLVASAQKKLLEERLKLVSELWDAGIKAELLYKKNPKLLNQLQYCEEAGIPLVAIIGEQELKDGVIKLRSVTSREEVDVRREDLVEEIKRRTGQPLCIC

T3: Fc-HRS(2-60) (human, UniProt P12081 2-60)
T3 construct: Fc at the N-terminus, HRS residues 2-60 (WHEP domain) at the C-terminus; in the imaging assay pre-complexed with anti-Fc-PE; also called HRS-Fc fusion protein construct; ATYR1923; not shown: human IgG Fc region
T3 sequence: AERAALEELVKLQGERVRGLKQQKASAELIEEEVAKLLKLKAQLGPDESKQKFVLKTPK


Tests used:
Mouse HARS = target: T1, Mouse HARS; assay: SPR (ProteOn); HRS protein immobilized, antibody as analyte
Human HARS = target: T2, Human HARS; assay: as above
Fc-HRS(2-60) [1] = target: T3, Fc-HRS(2-60); assay: flow cytometry blocking assay: 43.75 nM biotinylated Fc-HRS(2-60) complexed with 87.5 nM streptavidin-PE, added with titrated antibody to Expi293 cells stably expressing NRP2, the blocked partner [panel A]
Fc-HRS(2-60) [2] = target: T3, Fc-HRS(2-60); assay: flow cytometry blocking assay: 43.75 nM biotinylated Fc-HRS(2-60) complexed with 87.5 nM streptavidin-PE, added with titrated antibody to Expi293 cells stably expressing NRP2, the blocked partner [panel B]
[3] = target: T4, NRP2-Fc (R&D Systems #2215-N2) (human, UniProt O60462 23-864, limits assumed); assay: SPR; column Binding to NRP2 observed by SPR
T4 construct: Bought reagent used as NRP2 in the SPR experiments; also called human NRP2; Neuropilin 2; not shown: Fc
T4 sequence (O60462 23-864 limits assumed): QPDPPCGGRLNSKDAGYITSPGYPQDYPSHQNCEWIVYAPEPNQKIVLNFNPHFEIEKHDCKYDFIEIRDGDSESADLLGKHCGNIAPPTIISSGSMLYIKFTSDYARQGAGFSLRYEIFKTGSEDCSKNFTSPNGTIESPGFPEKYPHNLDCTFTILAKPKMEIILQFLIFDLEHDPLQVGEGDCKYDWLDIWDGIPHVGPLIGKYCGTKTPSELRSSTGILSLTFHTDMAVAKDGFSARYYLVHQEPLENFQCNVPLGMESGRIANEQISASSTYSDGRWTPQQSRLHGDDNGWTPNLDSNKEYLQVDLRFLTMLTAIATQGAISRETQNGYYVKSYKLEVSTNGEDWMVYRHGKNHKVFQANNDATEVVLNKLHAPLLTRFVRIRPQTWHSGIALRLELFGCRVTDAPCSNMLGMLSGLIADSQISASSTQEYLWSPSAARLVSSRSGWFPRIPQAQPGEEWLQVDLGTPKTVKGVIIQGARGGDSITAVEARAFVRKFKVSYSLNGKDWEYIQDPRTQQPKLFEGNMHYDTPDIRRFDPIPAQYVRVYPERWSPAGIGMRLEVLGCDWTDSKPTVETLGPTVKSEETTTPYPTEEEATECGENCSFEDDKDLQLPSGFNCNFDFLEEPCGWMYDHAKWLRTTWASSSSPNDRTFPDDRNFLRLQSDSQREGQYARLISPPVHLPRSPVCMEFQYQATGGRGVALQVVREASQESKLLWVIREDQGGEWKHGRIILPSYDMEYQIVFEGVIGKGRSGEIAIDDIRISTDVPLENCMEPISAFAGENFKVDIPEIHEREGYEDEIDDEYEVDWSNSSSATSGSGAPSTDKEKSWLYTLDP

| Binder | Kd (Mouse HARS) [nM] | Kd (Human HARS) [nM] | IC50 (read off the curve) (Fc-HRS(2-60) [1]) [nM] | IC50 (read off the curve) (Fc-HRS(2-60) [2]) [nM] | binding result [3] |
| --- | --- | --- | --- | --- | --- |
| KL31-467 (antibody, V domains shown, Humanized; IgG1m(zf) kappa) VH: QVQLVQSGAEVKKPGASVKVSCKASGYTFTDYCIGWIRQAPGQGLEWMGDICPGDTYTNDNEKFKDRATMTADTSTSTAYMELSSLRSEDTAVYYCARGEEQLGLRNAMDYWGQGTLVTVSS VL: DIVMTQSPDSLAVSLGERATINCQSQSVSTSTYNYMHWYQQKPGQPPKLLIKYASNLESGVPDRFSGSGSGTDFTLTISSLQAEDVATYYCQHSWEIPWTFGGGTKVEIK | 0.96 | 0.21 | ~20 | – | – |
| KL31-356 (antibody, IgG4, V domains shown, Humanized; IgG4-2 kappa) VH: QVQLVQSGAEVKKPGASVKVSCKASGYTFTDYCIGWIRQAPGQGLEWMGDICPGDTYTNDNEKFKDRATMTADTSTSTAYMELSSLRSEDTAVYYCARGEEQLGLRNAMDYWGQGTLVTVSS VL: DIVMTQSPDSLAVSLGERATINCQSQSVSTSTYNYMHWYQQKPGQPPKLLIKYASNLESGVPDRFSGSGSGTDFTLTISSLQAEDVATYYCQHSWEIPWTFGGGTKVEIK | 1.4 | 0.3 | ~20 | – | – |
| KL31-478 (antibody, V domains shown, Humanized; IgG1m(zf) kappa) VH: QVQLVQSGAEVKKPGASVKVSCKASGYTFTDYCIGWIRQAPGQGLEWMGDICPGDTYTNDNEKFKDRATMTADTSTSTAYMELSSLRSEDTAVYYCARGEEQLGLRNAMDYWGQGTLVTVSS VL: EIVLTQSPATLSLSPGERATLSCQSQSVSTSTYNYMHWYQQKPGQAPRLLIKYASNLESGIPDRFSGSGSGTDFTLTISRLEPEDFATYYCGHSYEIPWTFGGGTKVEIK | 0.614 | 0.076 | – | ~10 | – |
| KL31-513 (antibody, IgG4, V domains shown, Humanized; IgG4-2 kappa) VH: QVQLVQSGAEVKKPGASVKVSCKASGYTFTDYCIGWIRQAPGQGLEWMGDICPGDTYTNDNEKFKDRATMTADTSTSTAYMELSSLRSEDTAVYYCARGEEQLGLRNAMDYWGQGTLVTVSS VL: EIVLTQSPATLSLSPGERATLSCQSQSVSTSTYNYMHWYQQKPGQAPRLLIKYASNLESGIPDRFSGSGSGTDFTLTISRLEPEDFATYYCGHSYEIPWTFGGGTKVEIK | 1.25 | 0.116 | – | – | – |
| AB04-425 (antibody, V domains shown, Human; IgG1m(zf) kappa) VH: QVQLVESGGGLVKPGGSLRLSCAASGFTFSDYYMTWIRQAPGKGLEWVSYISGSFRYTNYADKVKGRFTISRDNAKNSLYLQMNSLRDEDTAVYFCARYVYQVVAIGDLWGQGTLVTVSS VL: DIQMTQSPSSVSASVGDRVTITCRASQGISSWLAWYQQKPGRAPKLLIFAASSLQSGVPSRFSGSGSGTHFTLTISSLQPEDFATYYCQQAESFPYTFGQGTKLEIK | 0.127 | 0.01 | – | – | – |
| AB04-439 (antibody, V domains shown, Human; IgG1m(zf) kappa) VH: QVQLVESGGGLVKPGGSLRLSCAASGFTFSDYYMTWIRQAPGKGLEWVSYISGSFRYTNYADSVKGRFTISRDNAKNSLYLQMNSLRDEDTAVYFCARYVYQVVAIGDLWGQGTLVTVSS VL: DIQMTQSPSSVSASVGDRVTITCRASQGISSWLAWYQQKPGRAPKLLIFAASSLQSGVPSRFSGSGSGTHFTLTISSLQPEDFATYYCQQAESFPYTFGQGTKLEIK | 0.13 | 0.048 | – | – | – |
| AB04-168 (antibody, IgG4, V domains shown, Human; IgG4-2 kappa) VH: QVQLVESGGGLVKPGGSLRLSCAASGFTFSDYYMTWIRQAPGKGLEWVSYISGSFRYTNYADKVKGRFTISRDNAKNSLYLQMNSLRDEDTAVYFCARYVYQVVAIGDLWGQGTLVTVSS VL: DIQMTQSPSSVSASVGDRVTITCRASQGISSWLAWYQQKPGRAPKLLIFAASSLQSGVPSRFSGSGSGTHFTLTISSLQPEDFATYYCQQAESFPYTFGQGTKLEIK | 0.145 | 0.015 | – | – | – |
| AB13-112 (IgG1m(za) kappa) (antibody, V domains shown, Human) VH: QVQLVESGGGLVKPGGSLRLSCAASGFTFSDYYMSWIRQAPGKGLEWVSYISDKSRYTKYTDKVRGRFTISRDNAKNSLYLQMNSLRAEDTAVYYCARYLYQVIAIADAWGQGTLVTVSS VL: DIQMTQSPSSVSASVGDRVTITCRASQGISSWLAWFQQKPGKAPKLLIFVASNLESGVPSRFSGSGSGTDFTLTISSLQPEDFATYYCQQAESFPYTFGQGTKLEIK | < 0.001 | < 0.001 | – | – | – |
| AB13-112 (IgG4 kappa) (antibody, V domains shown, Human) VH: QVQLVESGGGLVKPGGSLRLSCAASGFTFSDYYMSWIRQAPGKGLEWVSYISDKSRYTKYTDKVRGRFTISRDNAKNSLYLQMNSLRAEDTAVYYCARYLYQVIAIADAWGQGTLVTVSS VL: DIQMTQSPSSVSASVGDRVTITCRASQGISSWLAWFQQKPGKAPKLLIFVASNLESGVPSRFSGSGSGTDFTLTISSLQPEDFATYYCQQAESFPYTFGQGTKLEIK | 0.0025 | < 0.001 | – | – | – |
| AB13-288 (IgG1m(zf) kappa) (antibody, V domains shown, Human) VH: QVQLVESGGGLVKPGGSLRLSCAASGFTFSDYYMSWIRQAPGKGLEWVSYISDKSRYTKYTDKVRGRFTISRDNAKNSLYLQMNSLRAEDTAVYYCARYLYQVIAIADAWGQGTLVTVSS VL: DIQMTQSPSSVSASVGDRVTITCRASQGISSWLAWFQQKPGKAPKLLIFVASNLESGVPSRFSGSGSGTDFTLTISSLQPEDFATYYCQQAESFPYTFGQGTKLEIK | < 0.001 | < 0.001 | – | – | – |
| AB13-288 (IgG4-2 kappa) (antibody, V domains shown, Human) VH: QVQLVESGGGLVKPGGSLRLSCAASGFTFSDYYMSWIRQAPGKGLEWVSYISDKSRYTKYTDKVRGRFTISRDNAKNSLYLQMNSLRAEDTAVYYCARYLYQVIAIADAWGQGTLVTVSS VL: DIQMTQSPSSVSASVGDRVTITCRASQGISSWLAWFQQKPGKAPKLLIFVASNLESGVPSRFSGSGSGTDFTLTISSLQPEDFATYYCQQAESFPYTFGQGTKLEIK | 0.023 | < 0.001 | – | – | – |
| AB13-433 (antibody, V domains shown, Human; IgG1m(zf) kappa) VH: QVQLVESGGGLVKPGGSLRLSCAASGFTFSDYYMSWIRQAPGKGLEWVSYISDSSTYTNYTDSVRGRFTISRDNAKNSLYLQMNSLRAEDTAVYYCARYLYQVIAVADSWGQGTLVTVSS VL: DIQMTQSPSSVSASVGDRVTITCRASQGISSWLAWFQQKPGKAPKLLIYVASNLESGVPSRFSGSGSGTDFTLTISSLQPEDFATYYCQQANSFPYTFGQGTKLEIK | 0.21 | 0.21 | – | – | – |
| VEGF-A121 (ligand, human, UniProt P15692-9 27-147, looked up) APMAEGGGQNHHEVVKFMDVYQRSYCHPIETLVDIFQEYPDEIEYIFKPSCVPLMRCGGCCNDEGLECVPTEESNITMQIMRIKPHQGQHIGEMSFLQHNKCECRPKKDRARQEKCDKPRR | – | – | – | – | no binding |
| VEGF-A145 (ligand, human, UniProt P15692-6 27-171, looked up) APMAEGGGQNHHEVVKFMDVYQRSYCHPIETLVDIFQEYPDEIEYIFKPSCVPLMRCGGCCNDEGLECVPTEESNITMQIMRIKPHQGQHIGEMSFLQHNKCECRPKKDRARQEKKSVRGKGKGQKRKRKKSRYKSWSVCDKPRR | – | – | – | – | no binding |

Reference: patent US20180282402A1 (ATYR PHARMA, published 2018)
